The supplement of paper PMC10724198
± gives the standard deviation of the averaged measurements.

What was measured:
[1] = system: Saccharomyces cerevisiae; test: protein stability index of tFT-peptide fusion in deletion strain of DOA10 (PSI (0-1 scale)); higher = more stable (slower turnover)
Procedure: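 MPS profiling in S. cerevisiae of two library types built from selected 12-aa C-degron peptides (IN1, IN2, LN1, LN3, VN2, R1-R5, W1-W3, Atg1 and Rpa12 C-termini): saturation mutagenesis libraries and C-terminal +1 capping libraries (13 aa). Each peptide is fused to the C-terminus of a sfGFP-mCherry timer, after a GGGS linker. Cells are FACS-sorted into 8 mCherry/sfGFP bins and sequenced. PSI runs from 0 (unstable) to 1 (stable), measured once in wild type and in the das1Δ or doa10Δ background.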

[2] = system: Saccharomyces cerevisiae; test: protein stability index of tFT-peptide fusion in wild type (PSI (0-1 scale)); higher = more stable (slower turnover); details: genetic background: wild type
[3] = system: Saccharomyces cerevisiae; test: protein stability index of tFT-peptide fusion (C-terminal peptide) (PSI (0-1 scale)); higher = more stable (slower turnover)
Procedure: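 MPS profiling in S. cerevisiae of the tFT-X12 degron library: putative degron peptides plus stable controls, 12 aa, fused to the C-terminus of a sfGFP-mCherry timer. Cells are FACS-sorted into 8 mCherry/sfGFP bins and deep-sequenced. PSI runs from 0 (unstable) to 1 (stable). Backgrounds are wild type, das1Δ and doa10Δ at 30 °C, and wild type, das1Δ, cdc34-1 and cdc53-1 at 37 °C; 2-3 technical replicates each.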

[4] = system: Saccharomyces cerevisiae; test: as above; details: genetic background: wild type; temperature: 30 C
[5] = system: Saccharomyces cerevisiae; test: protein stability index of tFT-peptide fusion in deletion strain of DAS1 (PSI (0-1 scale)); higher = more stable (slower turnover)
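For protein stability index of tFT-peptide fusion (C-terminal peptide) in this document: PSI is a weighted mean of sequencing reads over stability bins, variants kept only with over 10 reads, mCherry proximal and sfGFP distal, peptide attached via GGGS linker.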
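For protein stability index of tFT-peptide fusion in deletion strain of DAS1 in this document: PSI is a weighted mean of each variant's read distribution over the sorted stability bins, computed only for variants having over 10 reads in total.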
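For protein stability index of tFT-peptide fusion in deletion strain of DOA10 in this document: PSI per variant is the weighted mean of its sequencing read distribution over the sorted stability bins, counting only variants with over 10 reads summed across bins.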
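For protein stability index of tFT-peptide fusion in wild type in this document: PSI derived as read-weighted mean over the 8 sorting bins, only variants exceeding 10 total reads kept, mCherry placed adjacent to the peptide and sfGFP distal.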

## HVTRLDAIYFRI
[1]
  protein stability index: 0.702
[2]
  protein stability index: 0.343

## RSLRVLLPVYFR
[1]
  protein stability index: 0.632
[2]
  protein stability index: 0.278

## TVTRLDAIYFRI
[1]
  protein stability index: 0.707
[2]
  protein stability index: 0.364

## VRGAVGGWRLVG
[2]
  protein stability index: 0.161
[3]; genetic background: cdc34-1, temperature: 37 C
  protein stability index: 0.572 ± 0.059
[3]; genetic background: cdc53-1, temperature: 37 C
  protein stability index: 0.754 ± 0.032
[3]; genetic background: das1 deletion, temperature: 30 C
  protein stability index: 0.629 ± 0.013
[3]; genetic background: das1 deletion, temperature: 37 C
  protein stability index: 0.764 ± 0.016
[3]; genetic background: doa10 deletion, temperature: 30 C
  protein stability index: 0.116 ± 0.028
[3]; genetic background: wild type, temperature: 30 C
  protein stability index: 0.131 ± 0.028
[3]; genetic background: wild type, temperature: 37 C
  protein stability index: 0.23 ± 0.0039
[4]
  protein stability index: 0.228 ± 0.082
[5]
  protein stability index: 0.681

## GLYMCSVGCWMR
[1]
  protein stability index: 0.575
[2]
  protein stability index: 0.253

## AITLPMCCLLLR
[1]
  protein stability index: 0.602
[2]
  protein stability index: 0.139

## AITLPMCPLLGR
[1]
  protein stability index: 0.607
[2]
  protein stability index: 0.603

## RSLYVLLPLYFR
[1]
  protein stability index: 0.619
[2]
  protein stability index: 0.261

## GLYMCSVGCWAR
[1]
  protein stability index: 0.5
[2]
  protein stability index: 0.438

## GLYMCSVGWWFR
[1]
  protein stability index: 0.557
[2]
  protein stability index: 0.499

## CLVSHPILLFFR
[1]
  protein stability index: 0.617
[2]
  protein stability index: 0.149

## AITLPMCPLLAR
[1]
  protein stability index: 0.343
[2]
  protein stability index: 0.311

## RSLRVGLPLYFR
[1]
  protein stability index: 0.665
[2]
  protein stability index: 0.287

## GLYFCSVGCWFR
[1]
  protein stability index: 0.607
[2]
  protein stability index: 0.202

## RSLRVLLPMYFR
[1]
  protein stability index: 0.658
[2]
  protein stability index: 0.334

## AITLPMCPLLWR
[1]
  protein stability index: 0.634
[2]
  protein stability index: 0.326

## RSLRVKLPLYFR
[1]
  protein stability index: 0.667
[2]
  protein stability index: 0.195

## CLVSLPALLFFR
[1]
  protein stability index: 0.664
[2]
  protein stability index: 0.0784

## AITLPMCPLLLRF
[1]
  protein stability index: 0.615
[2]
  protein stability index: 0.121

## GLYMCSVGCWFRV
[1]
  protein stability index: 0.402
[2]
  protein stability index: 0.155

## RSLRVLPPLYFR
[1]
  protein stability index: 0.697
[2]
  protein stability index: 0.273

## CLVSLPYLLFFR
[1]
  protein stability index: 0.64
[2]
  protein stability index: 0.0667

## RVTRLCAIYFRI
[1]
  protein stability index: 0.339
[2]
  protein stability index: 0.178

## RVTRLDAIYFFI
[1]
  protein stability index: 0.495
[2]
  protein stability index: 0.471

## RSLRVLGPLYFR
[1]
  protein stability index: 0.687
[2]
  protein stability index: 0.344

## CLVSLPIFLFFR
[1]
  protein stability index: 0.591
[2]
  protein stability index: 0.0521

## RVTRLDAIEFRI
[1]
  protein stability index: 0.7
[2]
  protein stability index: 0.704

## RSLRVLLPWYFR
[1]
  protein stability index: 0.666
[2]
  protein stability index: 0.606

## AITIPMCPLLLR
[1]
  protein stability index: 0.639
[2]
  protein stability index: 0.236

## TLYMCSVGCWFR
[1]
  protein stability index: 0.614
[2]
  protein stability index: 0.375

## RSLRVLLPLYFRY
[1]
  protein stability index: 0.606
[2]
  protein stability index: 0.259

## LVTRLDAIYFRI
[1]
  protein stability index: 0.604
[2]
  protein stability index: 0.234

## RVTSLDAIYFRI
[1]
  protein stability index: 0.669
[2]
  protein stability index: 0.55

## RVTREDAIYFRI
[1]
  protein stability index: 0.699
[2]
  protein stability index: 0.625

## RVTRLDAIYFVI
[1]
  protein stability index: 0.233
[2]
  protein stability index: 0.194

## GLYMTSVGCWFR
[1]
  protein stability index: 0.709
[2]
  protein stability index: 0.275

## GLYVCSVGCWFR
[1]
  protein stability index: 0.573
[2]
  protein stability index: 0.2

## GLYMCSVGCWFT
[1]
  protein stability index: 0.484
[2]
  protein stability index: 0.423

## RSLRDLLPLYFR
[1]
  protein stability index: 0.702
[2]
  protein stability index: 0.507

## AITLPMCPLGLR
[1]
  protein stability index: 0.683
[2]
  protein stability index: 0.644

## RVTRLDAIYIRI
[1]
  protein stability index: 0.683
[2]
  protein stability index: 0.325

## RSLRVLLPLYFP
[1]
  protein stability index: 0.657
[2]
  protein stability index: 0.634

## FVTRLDAIYFRI
[1]
  protein stability index: 0.549
[2]
  protein stability index: 0.189

## AITLPMCPLMLR
[1]
  protein stability index: 0.611
[2]
  protein stability index: 0.212

## RSLRVLLPHYFR
[1]
  protein stability index: 0.683
[2]
  protein stability index: 0.663

## AIALPMCPLLLR
[1]
  protein stability index: 0.632
[2]
  protein stability index: 0.231

## RSLRHLLPLYFR
[1]
  protein stability index: 0.693
[2]
  protein stability index: 0.45

## RSCRVLLPLYFR
[1]
  protein stability index: 0.66
[2]
  protein stability index: 0.275

## NLVSLPILLFFR
[1]
  protein stability index: 0.629
[2]
  protein stability index: 0.0961

## RSLLVLLPLYFR
[1]
  protein stability index: 0.638
[2]
  protein stability index: 0.344

## RVTRLDAIYFRW
[1]
  protein stability index: 0.709
[2]
  protein stability index: 0.472

## RVTRLDAIMFRI
[1]
  protein stability index: 0.686
[2]
  protein stability index: 0.496
